Source: article PMC4352398

Experiments:
[1] = target: constitutively active Flag-Rab4 variant (Drosophila); assay: co-IP
[2] = target: dominant negative Flag-Rab4 variant (Drosophila); assay: co-IP

fold stronger association than with wild type Flag-Rab4 [1]: 3.26 fold
fold weaker association than with wild type Flag-Rab4 [2]: 2.88 fold
B1: Myc-RhoGAP68F (natural protein)
chain: MDAHSRFAPRLPGPAINPIVDNSDEPQPSLSDLHDFEPKLEFDDTELLAPSPLEKDVMVGDFVLAEDPELEPEEDVNPLEDDFEDQLREQSENFQTPRNKCDFLGTDKQGRHIFGIYASRFPEKSQLEGFVREIIKEIEPFVENDYILVYFHQGLKEDNKPSAQFLWNSYKELDRNFRKNLKTLYVVHPTWFIRVIWNFFSPFISDKFRKKLVYISSLDELRQALGLNKLKLPDNICDLDDKLNPSRKPSTPPPSSNINASRQQQHKMATTHQFGVPLKFIVMNSPCLNSIPPIVRKCVDSLSITGVIDTEGIFRRSGNHSEIMALKERVNRGEDVDLKSVNVHVIAGLLKSFLRDLAEPLLTFELYEDVTGFLDWPKEERSRNVTQLIREKLPEENYELFKYIVEFLVRVMDCEDLNKMTSSNLAIVFGPNFLWSRSTSTSLEEIAPINAFVDFVLQNHKDIYLIDVNQRTVSVD
